Results from IntAct's records for PubMed 30545121.

B1: Ribosome maturation protein SBDS (Homo sapiens), Q9Y3A5 (parent)
chain: MSIFTPTNQIRLTNVAVVRMKRAGKRFEIACYKNKVVGWRSGVEKDLDEVLQTHSVFVNVSKGQVAKKEDLISAFGTDDQTEICKQILTKGEVQVSDKERHTQLEQMFRDIATIVADKCVNPETKRPYTVILIERAMKDIHYSVKTNKSTKQQALEVIKQLKEKMKIERAHMRLRFILPVNEGKKLKEKLKPLIKVIESEDYGQQLEIVCLIDPGCFREIDELIKKETKGKGSLEVLNLKDVEEGDEKFE
partner: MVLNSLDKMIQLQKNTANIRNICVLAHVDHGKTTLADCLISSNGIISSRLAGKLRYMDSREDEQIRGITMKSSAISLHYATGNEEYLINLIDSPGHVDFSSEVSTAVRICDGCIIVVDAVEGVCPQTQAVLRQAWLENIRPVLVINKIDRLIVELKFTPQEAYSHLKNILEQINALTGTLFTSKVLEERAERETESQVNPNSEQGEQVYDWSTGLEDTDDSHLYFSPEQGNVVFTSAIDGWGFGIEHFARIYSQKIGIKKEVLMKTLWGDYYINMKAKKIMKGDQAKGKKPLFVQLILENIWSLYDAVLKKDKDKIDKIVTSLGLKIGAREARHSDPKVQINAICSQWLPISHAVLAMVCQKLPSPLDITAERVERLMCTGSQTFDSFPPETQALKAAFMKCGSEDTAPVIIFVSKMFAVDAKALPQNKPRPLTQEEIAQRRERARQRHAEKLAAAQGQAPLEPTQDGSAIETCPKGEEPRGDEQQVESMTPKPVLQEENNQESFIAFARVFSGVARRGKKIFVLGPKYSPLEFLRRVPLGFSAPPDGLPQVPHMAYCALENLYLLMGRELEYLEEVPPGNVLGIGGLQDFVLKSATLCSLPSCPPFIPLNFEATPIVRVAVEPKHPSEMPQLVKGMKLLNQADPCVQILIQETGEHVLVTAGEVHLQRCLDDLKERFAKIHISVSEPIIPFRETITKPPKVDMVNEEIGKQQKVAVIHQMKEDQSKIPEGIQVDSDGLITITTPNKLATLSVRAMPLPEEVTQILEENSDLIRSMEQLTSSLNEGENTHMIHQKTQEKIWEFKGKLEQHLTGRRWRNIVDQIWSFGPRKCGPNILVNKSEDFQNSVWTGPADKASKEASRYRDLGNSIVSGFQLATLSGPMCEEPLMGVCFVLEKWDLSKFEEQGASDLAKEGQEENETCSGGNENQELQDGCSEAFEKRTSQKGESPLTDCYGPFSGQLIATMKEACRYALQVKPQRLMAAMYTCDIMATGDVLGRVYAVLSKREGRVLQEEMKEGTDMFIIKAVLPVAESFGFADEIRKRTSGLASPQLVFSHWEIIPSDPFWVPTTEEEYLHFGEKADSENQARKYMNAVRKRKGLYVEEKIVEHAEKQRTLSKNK

Variants of: B1
Conditions: with efl1_human EFL1, Q7Z2Z2

Row | Variant | effect of a mutation on the interaction
1 | I167T | decreasing interaction strength
2 | R175W | decreasing interaction strength
3 | R126T | decreasing interaction strength

Further lines, results first:

Row | effect of a mutation on the interaction | Variant
4 | disrupting interaction strength | S143L
5 | decreasing interaction strength | R19Q
6 | decreasing interaction strength | K67E
7 | disrupting interaction strength | I212T
